Data on 83 variants can be found in the RNAGym collection of RNA variant scans (doi:10.1093/molbev/msab373).

B1: Azoarcus group I ribozyme (parent)
chain: GUGCCUUGCGCCGGGAAACCACGCAAGGGAUGGUGUCAAAUUCGGCGAAACCUAAGCGCCCGCCCGGGCGUAUGGCAACGCCGAGCCAAGCUUCGGCGCCUGCGCCGAUGAAGGUGUAGAGACUAGACGGCACCCACCUAAGGCAAACGCUAUGGUGAAGGCAUAGUCCAGGGAGUGGCGAAAGUCACACAAACCGG

The variants in the series derive from B1. Description: reverse-splicing fitness (ratio to wild type); higher = more active; in vitro selection; Mg2+ level not given. In a few lines:
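An in vitro group I ribozyme library with randomized positions was T7-transcribed and gel-purified. In triplicate, 10 pmol RNA in EPPS pH 7.5 was reacted with 50 pmoles of a 30-nt RNA substrate for 1 h at 37 °C across several added MgCl2 levels (1–48 mM), then stopped with EDTA. Products were reverse transcribed from a substrate-complementary primer, PCR-amplified and sequenced (HiSeq 4000). Fitness is a variant's read proportion after selection over that before, normalised to wild type.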
Turning to C82G A111U A145U C150U U176C, the reverse-splicing fitness came to 0.152.
C82U A111C A120G A145G C150A C169A U176C: the reverse-splicing fitness was 0.0218.
Take C82A A111C A120C A145C C150G C169A U176G: the reverse-splicing fitness was 0.00767.
As for C82U A111U A145C C150G U176G, the reverse-splicing fitness worked out at 0.00423.
Consider C82G A111U A120U A145C C150A C169U, for which the reverse-splicing fitness turned out to be 0.0027.
The same measure for C82G A120U A145C C169G U176A: 0.00239; for C82U A111G A120G A145C C169U U176G: 0.00353.
Take C82U A111G A145G C150G C169A: the reverse-splicing fitness worked out at 0.00883.
Take C82U A120U A145C C169G U176C: the reverse-splicing fitness worked out at 0.00167.
On to C82G A111G A120G C150G C169G U176C, for which the reverse-splicing fitness amounted to 0.00628.
For C82A A111C A120C A145C C150G C169U U176A the value was 0.00758; for C82U A111C A120G A145C C150A C169A, 0.00641.
With C82G A111G A120C A145C C150A C169G U176C, the reverse-splicing fitness is 0.0173.
Regarding C82G A111G A120C A145G C150A C169G, the reverse-splicing fitness came to 0.0104.
C82G A111U A120U A145C C150A U176G: the reverse-splicing fitness came out at 0.00209.
As to C82A A111G A145C C150G U176G, the reverse-splicing fitness came to 0.00447.
In the case of C82U A111U A120U A145U C150G C169A U176A, the reverse-splicing fitness amounted to 0.0028.
For C82G A111C A145G C150U C169G the value was 0.00884; for A111G A120U A145G C150A C169A U176G, 0.00273.
On to C82G A145U C150A C169A, for which the reverse-splicing fitness is 0.00972.
In the case of C82A A145G C150G C169A U176C, the reverse-splicing fitness was found to be 0.0124.
For A111C A145G C150U, the reverse-splicing fitness came to 0.679.
As for C82G A111U A120G A145G C150A C169G U176A, the reverse-splicing fitness is 0.0165.
Take A120U A145G C150G C169G U176A: the reverse-splicing fitness amounted to 0.00914.
For the variant C82U A111G A120U A145U C169A U176G, the reverse-splicing fitness amounted to 0.00175.
With C82A A111U A120U C150G C169A U176G, the reverse-splicing fitness amounted to 0.00311.
On to C82A A111U C150G C169A U176A, for which the reverse-splicing fitness was 0.0116.
The same measure for C82A A111G A120U A145U C169A U176A: 0.00218; for C82U A111G A120G A145C C150G C169A U176G: 0.00439; for C82A A145G C150A C169A U176A: 0.0195.
For A111G A120G C150U U176G the value was 0.00879; for C82A A120C A145C C150U C169G, 0.00856; for A111U A120C C150U C169A U176C, 0.0126.
On to C82U A111C A120G A145U C150A C169A U176A, for which the reverse-splicing fitness worked out at 0.0102.
In the case of C82U A111C A120G A145U C150A C169A U176C, the reverse-splicing fitness worked out at 0.00775.
Take C82A A111C A120G A145C C150A C169A U176G: the reverse-splicing fitness turned out to be 0.00603.
On to A111U A120G A145C C150A U176A, for which the reverse-splicing fitness is 0.00785.
Turning to C82A A111C A120G A145C C150U C169G U176A, the reverse-splicing fitness came out at 0.0217.
For C82G A120C A145C C169U U176A the value was 0.0152; for C82U A145G C169G U176G, 0.00452; for C82A A111C A145C C169U U176C, 0.0138.
In the case of C82G A120C A145G C150G C169G U176C, the reverse-splicing fitness stood at 0.0134.
As to C82U A111U A120U A145U C169A, the reverse-splicing fitness was 0.00251.
The same measure for C82A A111U A120U A145U C169U: 0.0039; for C82G A111G A120G A145C C150G U176C: 0.0133.
The same measure for C82U A111C A145U C150G C169U U176A: 0.00807; for C82U A120C A145C C150U C169G U176C: 0.00645.
Regarding C82G A111C A120G A145U C150U C169U, the reverse-splicing fitness was found to be 0.00896.
In the case of C82U A111U A120G C150G C169A U176C, the reverse-splicing fitness came to 0.00855.
In the case of C82U A111U A120G C150G C169A U176A, the reverse-splicing fitness turned out to be 0.00906.
With A111U A120C A145C C150U C169G, the reverse-splicing fitness came out at 0.00744.
Consider C82A A111C A120U A145U C150A U176G, for which the reverse-splicing fitness was 0.00301.
C82U A111G A120C A145U C150G U176G: the reverse-splicing fitness came out at 0.00286.
With C82U A111U A120U A145C C150G C169A U176A, the reverse-splicing fitness was found to be 0.00264.
C82A A120G A145G C169G U176A: the reverse-splicing fitness was found to be 0.0223.
As for C82A A120G A145G C169G U176C, the reverse-splicing fitness worked out at 0.032.
A111U A145G C150A U176A: the reverse-splicing fitness turned out to be 0.238.
The same measure for C82A A111U A120U A145C C169A U176C: 0.00227; for C82U A111C C150G C169G U176C: 0.00488.
With C150A C169U U176G, the reverse-splicing fitness turned out to be 0.00737.
For C82U A120C C150G C169U U176G the value was 0.00422; for A145U C150U C169A, 0.106; for C82U A111U A120G A145C C150A C169A U176A, 0.0108.
For C82A A120G C150A C169U U176A, the reverse-splicing fitness came out at 0.0218.
Regarding A111U A120G C150A C169G U176C, the reverse-splicing fitness worked out at 0.0291.
On to C82A A111G C150U C169U, for which the reverse-splicing fitness came out at 0.0122.
With C82G A145G C150G, the reverse-splicing fitness was 0.05.
The same measure for C82U A111C A120G A145U C169A U176C: 0.01; for C82G A111U A120G A145U C169G U176G: 0.00405; for C82A A120G A145U C150G C169A U176C: 0.01.
C82G A111G A120C A145G U176G: the reverse-splicing fitness turned out to be 0.00851.
Regarding C82G A120C C150U C169U U176C, the reverse-splicing fitness turned out to be 0.0162.
As to C82A A111C A120G A145U C169G U176G, the reverse-splicing fitness is 0.00481.
For the variant C82U A111C A120U A145U C150A C169U U176C, the reverse-splicing fitness stood at 0.00256.
For A111U A120U A145U C150A C169A U176G, the reverse-splicing fitness amounted to 0.00154.
Take A111U A120U A145U C150A C169A U176C: the reverse-splicing fitness turned out to be 0.00214.
The same measure for C82U A120C A145C C150G: 0.0204.
In the case of C82A A120G A145U C169A, the reverse-splicing fitness was 0.0137.
With C82A A111C A145C C150U U176C, the reverse-splicing fitness amounted to 0.0355.
Regarding C82U A111G A120U A145G C150A C169G U176A, the reverse-splicing fitness came to 0.0124.
For the variant C82U A111U A120G C150G C169U U176A, the reverse-splicing fitness came to 0.0122.
Take C82G A120U A145U C150U U176G: the reverse-splicing fitness turned out to be 0.0126.
As for C82A A111C A120C C169A U176A, the reverse-splicing fitness is 0.0163.
